Reference: PMC8390317 (Experimental Animals, 2021)

Target: recombinant B7-H4 protein (Phe29 to Ala258) (Homo sapiens, UniProt Q7Z7D3)
Assay: ELISA

recombinant B7-H4 protein (Phe29 to Ala258), sequence (Q7Z7D3 29-258): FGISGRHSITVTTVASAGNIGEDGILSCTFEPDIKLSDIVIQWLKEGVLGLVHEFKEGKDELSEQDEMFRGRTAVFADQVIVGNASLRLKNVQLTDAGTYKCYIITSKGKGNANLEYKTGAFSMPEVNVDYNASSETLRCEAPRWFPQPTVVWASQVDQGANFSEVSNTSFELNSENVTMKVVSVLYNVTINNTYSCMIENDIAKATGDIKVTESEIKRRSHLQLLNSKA

Row | EC50 [nM] | Binder
1 | ~22 | anti-B7-H4 scFv S2 (scFv, V domains shown) VH: AVTLDESGGGLQTPGGGLSLVCKASGFTFSSYGMGWMRQVPGKGLEYVAVIDAGSGTWYATAVKGRATISRDNGQSTVRLQLNNLRAEDTATYYCAKSANAGAPDGAWIDAWGHGTEVIVSS VL: LTQPSSVSANLGGTVEITCSGGSGGYGWFQQKSPGSAPVTLIYNNNKRPSDIPSRFSGSKSGSTATLTITGVRAEDEAVYYCGGWDSIDSGIFGAGTTLTVL
2 | ~33 | anti-B7-H4 scFv S4 (scFv, V domains shown) VH: AVTLDESGGGLQTPGGALSLVCKASGFTFSSYGMGWMRQVPGKGLEYVAVIDAGSGTWYATAVKGRATISRDNGQSTVRLQLNNLRAEDTATYYCAKSANAGAPDGAWIDAWGHGTEVIVSS VL: LTQPSSVSANLGETVKITCSGGSYSYGWYQQKSPGSAPVTVIYDNNKRPSDIPSRFSGSKSGSTGTLTITGVQAEDEAIYYCGSRDSNTGYAAFGAGTTLTVL
